Measurements published in patent US12121566B2, “Methods for treating gout” (Horizon Therapeutics USA, Inc., priority 2019, dated 2024).

Key:
[1] = Pharmacokinetics after single intravenous infusions, serum uricase enzyme activity; assay type: in vivo, human; settings: single intravenous infusions of 0.5 mg to 12 mg, 23 patients
Procedure: Pegloticase levels were determined in serum based on measurements of uricase enzyme activity.

[2] = test system: rats; test: Reproductive toxicity and fertility in rats; assay type: in vivo, rat
Source text: The genotoxic potential of pegloticase has not been evaluated.

[3] = test system: rabbits; test: Reproductive toxicity in rabbits; assay type: in vivo, rabbit
[4] = test system: dogs; test: Animal toxicology in dogs (IV); assay type: in vivo, dog; settings: for vacuoles in the spleen, adrenal glands, and heart after recovery: 1-year recovery period; for vacuoles in the liver, duodenum, and jejunum after recovery: 3-month recovery period
Procedure: Organs with cytoplasmic vacuoles included the spleen, adrenal gland, liver, heart, duodenum, and jejunum. Vacuoles in the spleen, adrenal glands, and heart persisted after a 1-year recovery period at pegloticase dose (≥1.5 mg/kg in dogs) approximately 5 times the MRHD, but were absent at a dose similar to the MRHD. Vacuoles in the liver, duodenum, and jejunum persisted after a 3-month recovery period at a pegloticase dose (10 mg/kg in dogs) approximately 30 times the MRHD, but were absent at doses less than or equal to 1.5 mg/kg approximately 5 times and similar to the MRHD. The edema and histiocyte infiltration in the aortic outflow tract was absent after recovery periods of 6 and 12 months, respectively.
Vacuoles in the spleen, liver, duodenum, and jejunum were within macrophages and most likely represented phagocytic removal of pegloticase from the circulation. […] In the aortic outflow tract of the heart, vacuoles were in the cytoplasm of endothelial cells in the intimal lining of the aorta. In the adrenal gland, vacuoles were located within cortical cells in the Zona reticularis and Zona fasciculata. The clinical significance of these findings and the functional consequences are unknown.

[5] = Stability of pegloticase diluted in infusion bags; assay type: physicochemical; settings: at 2° C. to 8° C. and at room temperature (20° C. to 25° C.)
Procedure: Pegloticase-diluted in infusion bags is stable for 4 hours at 2° C. to 8° C. (36° F. to 46° F.) and at room temperature (20° C. to 25° C., 68° F. to 77° F.); however, it is recommended that the diluted solution be stored under refrigeration, not frozen, protected from light, and used within 4 hours of dilution. Before administration, the diluted solution of pegloticase should be allowed to reach room temperature. Pegloticase in a vial or in an IV infusion fluid should never be subjected to artificial heating.
KXX diluted in infusion bags is stable for 4 hours at 2° to 8° C. (36° to 46° F.) and at room temperature (20° to 25° C., 68° to 77° F.). However, it is recommended that diluted solutions be stored under refrigeration, not frozen, protected from light, and used within 4 hours of dilution. Before administration, allow the diluted solution of KXX to reach room temperature. KXX in a vial or in an intravenous infusion fluid should never be subjected to artificial heating (e.g., hot water, microwave).

[6] = KXX exposure (AUC) by patient weight and age; assay type: in vivo, human
Source text: In some embodiments, heavier and/or younger patients may have a higher incidence of anti-KXX antibodies, or may have higher anti-KXX drug titers, than lighter and/or older patients. In other embodiments, lighter and/or older patients may have higher drug loading of KXX than heavier and/or younger patients. In some embodiments, lighter patients may have higher exposures of KXX than heavier patients. For example, in some embodiments, lighter patients may have greater than 2-fold exposure to KXX than heavier patients. In some embodiments, lower drug levels in a patient may result in anti-KXX antibodies. […] In other embodiments, older patients may have higher exposures of KXX than younger patients. For example, in some embodiments, older patients may have greater than 2-fold exposure to KXX than younger patients. […] Thus, in some embodiments, additional 8-mg doses of KXX may be beneficial for younger and/or heavier patients. In other embodiments, younger and/or heavier patients may benefit from one or more loading doses of 16 mg of KXX.

[7] = test system: patients with chronic gout refractory to conventional therapy; test: Open-label extension study; assay type: in vivo, human; settings: KXX 8 mg every 2 weeks
Procedure: Two cases of congestive heart failure exacerbation occurred during the trials in patients receiving treatment with KXX 8 mg every 2 weeks. No cases were reported in placebo-treated patients. Four subjects had exacerbations of pre-existing congestive heart failure while receiving KXX 8 mg every 2 weeks during the open-label extension study.
Studies were stratified for the presence of tophi. Seventy-one percent (71%) of patients had baseline tophi. All patients were prophylaxed with an oral antihistamine, intravenous corticosteroid and acetaminophen. Patients also received prophylaxis for gout flares with non-steroidal anti-inflammatory drugs (NSAIDs) or colchicine, or both, beginning at least one week before KXX treatment unless medically contraindicated or not tolerated. Patients who completed the randomized clinical trials were eligible to enroll in a 2-year open label extension study.

[8] = test system: patients with symptomatic gout; settings: after doses of 4 to 12 mg, within 24 to 72 hours, from 11.1±0.6 mg/dL; cited from earlier work

pegloticase
maximum serum concentrations of pegloticase versus dose [1]: increased in proportion to the dose administered
mean fetal body weights ([2]; approximately 10 times the MRHD, maternal doses up to 10 mg/kg twice weekly): No effects
mean fetal and pup body weights ([2]; approximately 50 times the MRHD, maternal doses up to 40 mg/kg every other day): Statistically significant decreases
teratogenicity ([2]; approximately 50 times the MRHD, maternal doses up to 40 mg/kg twice weekly): not teratogenic
impairment on fertility ([2]; doses up to 40 mg/kg every other day (approximately 50 times the MRHD)): no evidence of impairment
mean fetal body weights ([3]; approximately 25 times the MRHD, maternal doses up to 10 mg/kg twice weekly): No effects
mean fetal and pup body weights ([3]; approximately 75 times the MRHD, maternal doses up to 30 mg/kg every other day): Statistically significant decreases
teratogenicity ([3]; approximately 75 times the MRHD, maternal doses up to 30 mg/kg twice weekly): not teratogenic
vacuoles in the spleen, adrenal glands, and heart after recovery ([4]; dose similar to the MRHD): absent
vacuoles in the spleen, adrenal glands, and heart after recovery ([4]; ≥1.5 mg/kg, approximately 5 times the MRHD): persisted
vacuoles in the liver, duodenum, and jejunum after recovery ([4]; 10 mg/kg, approximately 30 times the MRHD): persisted
vacuoles in the liver, duodenum, and jejunum after recovery ([4]; doses less than or equal to 1.5 mg/kg): absent
organ findings ([4]; IV doses of ≥0.4 mg/kg, similar to and higher than the MRHD): caused cytoplasmic vacuoles in multiple organs, and edema and histiocyte infiltration in the aortic outflow tract
edema and histiocyte infiltration in the aortic outflow tract after recovery ([4]; recovery periods of 6 and 12 months, respectively): absent
stability diluted in infusion bags [5]: 4 h
mean area under the curve (AUC) ([6]; heavier patients): about 4.04 mg/L
exposure to KXX, lighter versus heavier patients ([6]; human, in vivo): greater than 2 fold
exposure to KXX, older versus younger patients ([6]; human, in vivo): greater than 2 fold
mean area under the curve (AUC) ([6]; lighter patients): about 8.92 mg/L
mean area AUC ([6]; older patients): about 8.86 mg/L
mean area AUC ([6]; younger patients): about 3.93 mg/L
subjects with exacerbations of pre-existing congestive heart failure [7]: Four
plasma urate concentration (pUAc), mean±SD [8]: 1.0±0.5 mg/dL
